Measured values reported in PMC3877283, “Development of Novel Radiogallium-Labeled Bone Imaging Agents Using Oligo-Aspartic Acid Peptides as Carriers” (PLoS ONE, 2013).
Like-named read-outs stand apart in the source and are kept apart here. Peptide text beside a SMILES is read from it. * marks the point of attachment. DOTA = O=C(O)CN1CCN(CC(=O)O)CCN(CC(=O)*)CCN(CC(=O)O)CC1

Experiment: Biodistribution experiments in normal mice
Format: in vivo, ddY mice
Conditions: for F/B ratio (Femur:blood ratio) / tissue uptake dose at 1 h / tissue uptake dose at 3 h / tissue uptake dose at 10 min: male ddY mice, no pretreatment, mean (SD) for four or five animals
Description: Experiments with animals were conducted in strict accordance with the Guidelines for the Care and Use of Laboratory Animals of Kanazawa University. The animal experimental protocols used were approved by the Committee on Animal Experimentation of Kanazawa University (Permit Number: AP-132633). Biodistribution experiments were performed after an intravenous administration of each diluted tracer solution (37 kBq/100 µL) to 6-week-old male ddY mice (27–32 g, Japan SLC, Inc., Hamamatsu, Japan). To investigate the effect of an excess amount of bisphosphonate on biodistribution, alendronate (20 mg/kg) was intravenously administered to mice 1 minute before the intravenous injection of ^67Ga-DOTA-(Asp)14 or ^67Ga-DOTA-Bn-SCN-HBP. Four to six mice each were sacrificed by decapitation at 10, 60, and 180 minutes post-injection. Tissues of interest were removed and weighed. Complete left femurs were isolated as representative bone samples, radioactivity was determined using an auto well gamma counter, and counts were corrected for background radiation and physical decay during counting.

SMILES: O=C(O)C[C@H](NC(=O)[C@H](CC(=O)O)NC(=O)[C@H](CC(=O)O)NC(=O)[C@H](CC(=O)O)NC(=O)[C@H](CC(=O)O)NC(=O)[C@H](CC(=O)O)NC(=O)[C@H](CC(=O)O)NC(=O)[C@H](CC(=O)O)NC(=O)[C@H](CC(=O)O)NC(=O)[C@H](CC(=O)O)NC(=O)[C@H](CC(=O)O)NC(=O)[C@H](CC(=O)O)NC(=O)[C@H](CC(=O)O)NC(=O)[C@H](CC(=O)O)NC(=O)CN1CCN(CC(=O)O)CCN(CC(=O)O)CCN(CC(=O)O)CC1)C(=O)O [67Ga-DOTA-(Asp)14, metal not drawn] ({DOTA}-DDDDDDDDDDDDDD-OH)
- F/B ratio (Femur:blood ratio) (10 min after i.v. administration): 6.27 (0.66)
- F/B ratio (Femur:blood ratio) (60 min after i.v. administration): 185.54 (46.89)
- F/B ratio (Femur:blood ratio) (180 min after i.v. administration): 591.08 (221.41)
- tissue uptake dose at 1 h (male, ddY, mouse, in vivo, iv, 37 kBq/100 uL, total radioactivity, Blood, 60 min after i.v. administration, read-out: Radioactivity in Blood): 0.07 %ID
- tissue uptake dose at 3 h (male, ddY, mouse, in vivo, iv, 37 kBq/100 uL, total radioactivity, Blood, 180 min after i.v. administration, read-out: Radioactivity in Blood): 0.03 %ID
- tissue uptake dose at 10 min (male, ddY, mouse, in vivo, iv, 37 kBq/100 uL, total radioactivity, Bone (complete left femur), 10 min after i.v. administration, read-out: Radioactivity in Bone (Femur)): 10.1 %ID
- tissue uptake dose at 1 h (male, ddY, mouse, in vivo, iv, 37 kBq/100 uL, total radioactivity, Bone (complete left femur), 60 min after i.v. administration, read-out: Radioactivity in Bone (Femur)): 12.8 %ID
- tissue uptake dose at 3 h (male, ddY, mouse, in vivo, iv, 37 kBq/100 uL, total radioactivity, Bone (complete left femur), 180 min after i.v. administration, read-out: Radioactivity in Bone (Femur)): 13.3 %ID
- tissue uptake dose at 10 min (male, ddY, mouse, in vivo, iv, 37 kBq/100 uL, total radioactivity, Brain, 10 min after i.v. administration, read-out: Radioactivity in Brain): 0.05 %ID
- tissue uptake dose at 1 h (male, ddY, mouse, in vivo, iv, 37 kBq/100 uL, total radioactivity, Brain, 60 min after i.v. administration, read-out: Radioactivity in Brain): 0.01 %ID
- tissue uptake dose at 3 h (male, ddY, mouse, in vivo, iv, 37 kBq/100 uL, total radioactivity, Brain, 180 min after i.v. administration, read-out: Radioactivity in Brain): 0.01 %ID
- tissue uptake dose at 10 min (male, ddY, mouse, in vivo, iv, 37 kBq/100 uL, total radioactivity, Heart, 10 min after i.v. administration, read-out: Radioactivity in Heart): 0.62 %ID
- tissue uptake dose at 1 h (male, ddY, mouse, in vivo, iv, 37 kBq/100 uL, total radioactivity, Heart, 60 min after i.v. administration, read-out: Radioactivity in Heart): 0.06 %ID
- tissue uptake dose at 3 h (male, ddY, mouse, in vivo, iv, 37 kBq/100 uL, total radioactivity, Heart, 180 min after i.v. administration, read-out: Radioactivity in Heart): 0.03 %ID
- tissue uptake dose at 10 min (male, ddY, mouse, in vivo, iv, 37 kBq/100 uL, total radioactivity, Kidney, 10 min after i.v. administration, read-out: Radioactivity in Kidney): 12.4 %ID
- tissue uptake dose at 1 h (male, ddY, mouse, in vivo, iv, 37 kBq/100 uL, total radioactivity, Kidney, 60 min after i.v. administration, read-out: Radioactivity in Kidney): 0.99 %ID
- tissue uptake dose at 3 h (male, ddY, mouse, in vivo, iv, 37 kBq/100 uL, total radioactivity, Kidney, 180 min after i.v. administration, read-out: Radioactivity in Kidney): 0.76 %ID
- tissue uptake dose at 10 min (male, ddY, mouse, in vivo, iv, 37 kBq/100 uL, total radioactivity, Large-intestine, 10 min after i.v. administration, read-out: Radioactivity in Large-intestine): 0.3 %ID
- tissue uptake dose at 1 h (male, ddY, mouse, in vivo, iv, 37 kBq/100 uL, total radioactivity, Large-intestine, 60 min after i.v. administration, read-out: Radioactivity in Large-intestine): 0.04 %ID
- tissue uptake dose at 3 h (male, ddY, mouse, in vivo, iv, 37 kBq/100 uL, total radioactivity, Large-intestine, 180 min after i.v. administration, read-out: Radioactivity in Large-intestine): 0.15 %ID
- tissue uptake dose at 10 min (male, ddY, mouse, in vivo, iv, 37 kBq/100 uL, total radioactivity, Liver, 10 min after i.v. administration, read-out: Radioactivity in Liver): 0.39 %ID
- tissue uptake dose at 1 h (male, ddY, mouse, in vivo, iv, 37 kBq/100 uL, total radioactivity, Liver, 60 min after i.v. administration, read-out: Radioactivity in Liver): 0.05 %ID
- tissue uptake dose at 3 h (male, ddY, mouse, in vivo, iv, 37 kBq/100 uL, total radioactivity, Liver, 180 min after i.v. administration, read-out: Radioactivity in Liver): 0.05 %ID
- tissue uptake dose at 10 min (male, ddY, mouse, in vivo, iv, 37 kBq/100 uL, total radioactivity, Lung, 10 min after i.v. administration, read-out: Radioactivity in Lung): 1.19 %ID
- tissue uptake dose at 1 h (male, ddY, mouse, in vivo, iv, 37 kBq/100 uL, total radioactivity, Lung, 60 min after i.v. administration, read-out: Radioactivity in Lung): 0.08 %ID
- tissue uptake dose at 3 h (male, ddY, mouse, in vivo, iv, 37 kBq/100 uL, total radioactivity, Lung, 180 min after i.v. administration, read-out: Radioactivity in Lung): 0.03 %ID
- tissue uptake dose at 10 min (male, ddY, mouse, in vivo, iv, 37 kBq/100 uL, total radioactivity, Muscle, 10 min after i.v. administration, read-out: Radioactivity in Muscle): 0.57 %ID
- tissue uptake dose at 1 h (male, ddY, mouse, in vivo, iv, 37 kBq/100 uL, total radioactivity, Muscle, 60 min after i.v. administration, read-out: Radioactivity in Muscle): 0.08 %ID
- tissue uptake dose at 3 h (male, ddY, mouse, in vivo, iv, 37 kBq/100 uL, total radioactivity, Muscle, 180 min after i.v. administration, read-out: Radioactivity in Muscle): 0.05 %ID
- tissue uptake dose at 10 min (male, ddY, mouse, in vivo, iv, 37 kBq/100 uL, total radioactivity, Pancreas, 10 min after i.v. administration, read-out: Radioactivity in Pancreas): 0.5 %ID
- tissue uptake dose at 1 h (male, ddY, mouse, in vivo, iv, 37 kBq/100 uL, total radioactivity, Pancreas, 60 min after i.v. administration, read-out: Radioactivity in Pancreas): 0.07 %ID
- tissue uptake dose at 3 h (male, ddY, mouse, in vivo, iv, 37 kBq/100 uL, total radioactivity, Pancreas, 180 min after i.v. administration, read-out: Radioactivity in Pancreas): 0.03 %ID
- tissue uptake dose at 10 min (male, ddY, mouse, in vivo, iv, 37 kBq/100 uL, total radioactivity, Small-intestine, 10 min after i.v. administration, read-out: Radioactivity in Small-intestine): 0.38 %ID
- tissue uptake dose at 1 h (male, ddY, mouse, in vivo, iv, 37 kBq/100 uL, total radioactivity, Small-intestine, 60 min after i.v. administration, read-out: Radioactivity in Small-intestine): 0.08 %ID
- tissue uptake dose at 3 h (male, ddY, mouse, in vivo, iv, 37 kBq/100 uL, total radioactivity, Small-intestine, 180 min after i.v. administration, read-out: Radioactivity in Small-intestine): 0.05 %ID
- tissue uptake dose at 10 min (male, ddY, mouse, in vivo, iv, 37 kBq/100 uL, total radioactivity, Spleen, 10 min after i.v. administration, read-out: Radioactivity in Spleen): 0.42 %ID
- tissue uptake dose at 1 h (male, ddY, mouse, in vivo, iv, 37 kBq/100 uL, total radioactivity, Spleen, 60 min after i.v. administration, read-out: Radioactivity in Spleen): 0.07 %ID
- tissue uptake dose at 3 h (male, ddY, mouse, in vivo, iv, 37 kBq/100 uL, total radioactivity, Spleen, 180 min after i.v. administration, read-out: Radioactivity in Spleen): 0.03 %ID
- tissue uptake dose at 10 min (male, ddY, mouse, in vivo, iv, 37 kBq/100 uL, total radioactivity, Stomach (footnote b), 10 min after i.v. administration, read-out: Radioactivity in Stomach): 0.24 %ID
- tissue uptake dose at 1 h (male, ddY, mouse, in vivo, iv, 37 kBq/100 uL, total radioactivity, Stomach (footnote b), 60 min after i.v. administration, read-out: Radioactivity in Stomach): 0.1 %ID
- tissue uptake dose at 3 h (male, ddY, mouse, in vivo, iv, 37 kBq/100 uL, total radioactivity, Stomach (footnote b), 180 min after i.v. administration, read-out: Radioactivity in Stomach): 0.02 %ID
- tissue uptake at 1 h (male, ddY, mouse, in vivo, iv, 37 kBq/100 uL, total radioactivity, 60 min after injection, mice, read-out: accumulation in bone): 12.8 ± 1.7 %ID/g
- tissue uptake dose at 10 min (mouse, in vivo, iv, 37 kBq/100 uL, total radioactivity, Blood, 10 min after i.v. administration (37 kBq/100 µL), gamma counter, read-out: Radioactivity in Blood): 1.61 %ID
- accumulation of radioactivity in the femur (in words) (normal mice, i.v.): higher accumulation
